We go through 41 sequences from the nanobody polyreactivity screen of Harvey et al. (2022).

A short description of the data set: yeast display, Sf9 membrane polyspecificity reagent, FACS + sequencing; frameworks hold sequencing errors. Summed up:
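Genes from sorted yeast were amplified by colony PCR, read by MiSeq 2 × 250 sequencing and filtered on CDR length. These cells carried a synthetic nanobody library in Saccharomyces cerevisiae BJ5465 and were sorted by FACS into low and high (top ~1%) gates on anti-HA and streptavidin fluorescence. Polyreactivity is labelled according to the gate of origin.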
As to “QVQLVESGGGLVQAGGSLRVSCAASGSTFPPSAMGWYREAPGKERELGAAIDWSDGTTYYADSVKGRFTISRDYAKNTVYLQMNSLKPEDTAVYYCAADPVLDEYDYWGQGTQVTVSS”, the “polyreactivity (PSR sort gate)” value is on record as “low polyreactivity”.
With “QVQLVESGGGLVQAGGSLRVSCAASGSTFVYYAMGWYRQAPGKERELVAAITASGGGTYYADSVKGRFTISRDNAKNTVYLQMNSLKPEDTAVYYCNRGYDYWGQGTQVTVSS”, the “polyreactivity (PSR sort gate)” value is “low polyreactivity”.
On to “QVQLVESGGGLVQAGGSLRVSCAASGSTFYEYAMGWYRQAPGKERELVAAITRGGTTYYADSVKGRFTISRDNAKNTDYYQMNSLKPEDTAVYYCAARTRGFTKLGYWGQGTQVTVSS”, for which the “polyreactivity (PSR sort gate)” value is “high polyreactivity”.
The entry for “QVQLVESGGGLVQAGGSLRVSCAASGTTFPRNAMGWYRQAPGKERELVATITSAGGGTYYADSVKGRFTISRDNAKNSVYLQMNSLKPEDTAVYYCNADGPAGDAFDSWGQGTQVTVSS” is “low polyreactivity”; for “QVQLVESGGGLVQAGGSLRVSCAASGYTFDLYAMGWYRQAPGKERELVADISSGGSTNYADSVKGRFTISRDNAKNTVYLQMNSLKPEDTAVYYCAVDADRTLFGQYYVSEYGGGYWGQGTQVTVSS” it is “low polyreactivity”.
In the case of “QVQLVESGGGLVQAGGSLSFSCAASGNTFYRNAMGWYSQAPGKERELVAAITFSTVRTYYADSVKGRFTISRDNAKNTVYLQMNSLKPEDTAVYYCNKLYRGTWAKENGYWGQGTQVTVSS” it was “high polyreactivity”; in that of “QVQLVESGGGLVQAGGSLSISCAASGRTFYAYAMGWYRQAPGTERELVASIDKSGGSTYYADSVKGRFTISRRIRRYRLFTDEQPETGRYRCLLLRCWCVVLSDFQFWGDFDYDYWGQGTQVTVSS”, “low polyreactivity”.
In the case of “QVQLVESGGGLVQAGGSLSISCASSGRNFGANAMGLYRQAPGKERELVAVITGGGGTYYADSVKGRFTISRDNAKNTVYLQMNSLKPEDTAVYYCDWPRYYYTYPSHPMDYWGQGTQVTVSS” it was “low polyreactivity”.
Turning to “QVQLVESGGGLVQAGGSLSLICAASGNTFPPYAMGWYRQAPGKERELVAAISCGGRTYYADSVKGRFTISRDNAKNTVYLQMNSLTPEDTAVYYCAVYVPNYYSYHYDYWGQGTQVTVSS”, the “polyreactivity (PSR sort gate)” value is on record as “high polyreactivity”.
The entry for “QVQLVESGGGLVQAGGSLSLICAASGSIFAPNAMGLYRQAPGKERELDATITKRGGNTYYADSVKGRFTISRDNAINTVYLKMNSLKPEDSAVFYCNDSPYSRWSSYGYDYWGQGTQVTVSS” is “low polyreactivity”.
In the case of “QVQLVESGGGLVQAGGSLSLICAASGSTFNLYPMGGYRKAPGKERELVAAISRGGSTNYADSVKGRFTISRDNAKNTVYLQMNSLIPEDTAVYYCAARSWYDRYPYYSWGQGTQLTVSS” it was “high polyreactivity”; in that of “QVQLVESGGGLVQAGGSLSLICAASGTTFYYYAMGWYRQAPGKERELVAANTLRGTSTYYADSVKGRFTISRDNAKNTVDLQMNRLKPEDTAVYYCAVETYYSIFDIYDYWGQGTQVTVSS”, “low polyreactivity”; in that of “QVQLVESGGGLVQAGGSLSLICDASGRTFTRYVMGWYRHAPGKERELVAAISSSGGTYYADSVKGRFTISRDNAKNTVYLQMNSLKPEDTAVYYCAVGSKLSRSYGYYYWGQGTQVTVSS”, “high polyreactivity”.
Take “QVQLVESGGGLVQAGGSLSLRCAASGGTFAPYAMGWYRQAPGTERELDAAISWSGGSTYYADSVKGLFTISRDNAKISVYLQMNSLKPEDTAVYYCAGRLTRGIYSTYYYWGQGTQGTVSS”: the “polyreactivity (PSR sort gate)” value is on record as “high polyreactivity”.
For the sequence “QVQLVESGGGLVQAGGSLSLSCAASARIFYGYAMGWYRQEPGKEREFVAAITSGGRTYYADSVKGRFTISRDNAKNTVYLQMNSLKPEDTAVYYCAAAQYYRYGYWGQGTQVTVSS”, the “polyreactivity (PSR sort gate)” value is on record as “high polyreactivity”.
As to “QVQLVESGGGLVQAGGSLSLSCAASARTFYYYAMGWSRQAPGKEREFVASITWRGGRTYYADSVKGRFTISRDNAKNTVYLQMNSLKPEDTAVYYCAADGSYAIGGYGYWGQGTQVTVSS”, the “polyreactivity (PSR sort gate)” value is “high polyreactivity”.
The entry for “QVQLVESGGGLVQAGGSLSLSCAASGFIFGGNAMGWYRQAPGKERELVAAISSGGRTYYADSVKGRFTISRDNAKNTVYLQMNSLKPEDTAVYYLNDYSYHRGRDYWGQGTQVTVSS” is “low polyreactivity”.
As to “QVQLVESGGGLVQAGGSLSLSCAASGFIFSYYVMGWYRQAPGKERELVAAINESGGRTYYADSVKGRFTISRDNAKNTVYLQMNSLNPEDTAVYYCAASVLNKIQGYRDYYWGQGTQVTVSS”, the “polyreactivity (PSR sort gate)” value is on record as “low polyreactivity”.
With “QVQLVESGGGLVQAGGSLSLSCAASGFIFTPYTMGWYREAPGKERELVAAITDGSSTNYADSVKGRFTISRDNAKNTVYLQMNSLKPEDTAVYYCAKDWPSAVYGSWAGRYDYWGQGSQVTVSS”, the “polyreactivity (PSR sort gate)” value is given as “low polyreactivity”.
Take “QVQLVESGGGLVQAGGSLSLSCAASGFTFPLYAMGWYRPAPGKERELVASISKSGGRTYYADSVKGRFTISRDNAKNTVYLQMNSLKPEDTAVYYCATLPRYYGYWGQGTQVTVSS”: the “polyreactivity (PSR sort gate)” value is “high polyreactivity”.
The entry for “QVQLVESGGGLVQAGGSLSLSCAASGFTFRWYAMGWYRQAPGKERELVAAISSDDDTSYADSVKGRFTISRDNAKNTVYLQMNSLKPEDTAVYDCAADGYYTLDAYPYGIFWYDYWGQGTQVTVSS” is “low polyreactivity”; for “QVQLVESGGGLVQAGGSLSLSCAASGFTFRYNAMGWYRQAPGKERELVARISSTGGGTSYADSVKGRFTISRDNAKNTVYLQMNSLKPEDTAVYYCAAPVRRYPYPGRFYYWGQGTQVTVSS” it is “low polyreactivity”; for “QVQLVESGGGLVQAGGSLSLSCAASGFTFSVYVLGWYRQAPGKERELVAAISSGGDTTYADSVKGRFTISRDNAKNTVYLQMNSLNPVDTAVYYCAADPGYYSWGSSQDDYWGQGTQVTVSS” it is “low polyreactivity”.
As for “QVQLVESGGGLVQAGGSLSLSCAASGFTFYENAMGWYRQAPGKERELVATISYSGGTTYYADSVKGRFTISRDNAKNTVYLQMNSLKPEDTAVYYCNADYFYYGFPDDYWGQGTQVTVSS”, the “polyreactivity (PSR sort gate)” value is listed as “low polyreactivity”.
The entry for “QVQLVESGGGLVQAGGSLSLSCAASGFTFYYYAMGLYRQAPGKERELVAAISWSGGSTYYADSVKGRFTISRDIAKNSVYLQMNCLKPEYTAVYYCNAVGYTAYDYWGQGTQVTVSS” is “high polyreactivity”; for “QVQLVESGGGLVQAGGSLSLSCAASGGTFSPYAMGWYRQAPGKERELVAITSSDSTNYADSVKGRFTISRDNAKNTVYLQMNSLKPEDTAVYYCNAGYPIPEDYLAYGNFDYWGQGTQVTVSS” it is “low polyreactivity”.
Regarding “QVQLVESGGGLVQAGGSLSLSCAASGGTFSYYAMGWYRQAPGKGELVAAISSGGSTNYADSVKGRFTISRDNAINTAYLQMNSLKPEDTAVYYCADRYRFWGPYNYWGQGTQVTVSS”, the “polyreactivity (PSR sort gate)” value is given as “high polyreactivity”.
In the case of “QVQLVESGGGLVQAGGSLSLSCAASGGTFYQYAMGWYRQAPGKERELVAAISTSGARTYYADSVKGRFTISRDNAKNTVYLQMNSLKTEDTAVYYCAADHIRGGLDYWGQGTQVTVSS” it was “high polyreactivity”; in that of “QVQLVESGGGLVQAGGSLSLSCAASGIIFVDYAMGWYRQAPGKERELVAVIRSAGSTYYADSVKGRFTISRDNAKNTVYLQMNSLKPEDTAVYYCNARARGARRYYYWGQGTQVTVSS”, “high polyreactivity”.
Take “QVQLVESGGGLVQAGGSLSLSCAASGLIFITYAMGWYRQAPGKERELVATITLRGGSTYYADSVKGRFTISRDNAKNTVYLQMNSLKPEDTAVYYCAADVGYWGRSRGYPSDDYDYWGQGTQVTVSS”: the “polyreactivity (PSR sort gate)” value is given as “low polyreactivity”.
In the case of “QVQLVESGGGLVQAGGSLSLSCAASGLIFYYYAMGWYRQAPGKERELVAAISGSGGSTYYADSVKGRFTISRDNAKNTVYLQMNSLKPEDTAVYYCAAESQYTYGYGYWGQGTQVTVSS” it was “high polyreactivity”.
The entry for “QVQLVESGGGLVQAGGSLSLSCAASGLIYYSYAMGWYRQAPGKERELVAAITGGGSTNYADSVKGRFTISPDNAKNTVYLQMNSLKPEDTAVYYCAAAFTLRKYDYWGQGTQVSVSS” is “low polyreactivity”.
The entry for “QVQLVESGGGLVQAGGSLSLSCAASGLTFVDNAMGWYRQAPWKERELVAAISYNGGSTYYADSVKGRFTISRDHAKTTVYLQMNSLKPEDTAVYSCAADIYVGRYGDMDFWGQGTQVTVSS” is “low polyreactivity”; for “QVQLVESGGGLVQAGGSLSLSCAASGRIFGHNAMGWYRQAPGKERELVATISSGVRTNYADSVKGRFTISRDNAKNTVYLQMNSLKPEDTAVYYCATKTYQFGYSSYYYWGQGTQVTVSS” it is “high polyreactivity”; for “QVQLVESGGGLVQAGGSLSLSCAASGRIFSTYAMGWYRQAPGKERELVAAITSRGTSTYYADSVKGRFTISRDNAKNTVYLQINSLKPEDSAVYYCAARRERWSSSIVGYWGQGTQVTVSS” it is “high polyreactivity”.
For “QVQLVESGGGLVQAGGSLSLSCAASGRIFVSYAMGWYRQAPGKERELVAAISYSGGSTYYADSVKGRFTISRDNAKNTVYLQMNSLKPEDTAVYYCAKDGGVYAPAGDDDYWGQGTQVTVSS”, the “polyreactivity (PSR sort gate)” value was “low polyreactivity”.
In the case of “QVQLVESGGGLVQAGGSLSLSCAASGRIIKFYAMGWYRQAPGKERELVARISRSGGRTYYSDSVKGRFTISRDNAKNTVYLQMNSLKPEDPAVYYCNADGDNRRDRYEYWGQGTQVTVSS” it was “low polyreactivity”.
The entry for “QVQLVESGGGLVQAGGSLSLSCAASGRSFFNYAMGWYRQAPGKERELVAAISFSDGSTYYADSVKGRFTISRDNAKNTVYLQMNSLKPEDTAVYYCAAEPDYVYYRSDQALFDYWGQGTQVTVSS” is “high polyreactivity”.
The entry for “QVQLVESGGGLVQAGGSLSLSCAASGRTFDDNAMGWYRQAPGKERELVAAISSTGSTNYADSLKGRFTISRDNAKNTVYLQMNSLKPEDTAVYYCNTDGGHERAYYYWGQCTQVTVSS” is “low polyreactivity”.
Take “QVQLVESGGGLVQAGGSLSLSCAASGRTLYLYTMGWYRQAPGKERELVASINWRGSTYYADSVKGRFTISRDNAKNTVYLQMNSLKPEDTAVYYCNVGGPSGGMYYWGQGTQVTVSS”: the “polyreactivity (PSR sort gate)” value is on record as “low polyreactivity”.
As to “QVQLVESGGGLVQAGGSLSLSCAASGSIFDYYDMGWYRQSPGKERQLVAAITGSGGNTYYADSVKGRFTISRDNAKNTVYLQMNSLKPEDTAVYYCAAYGLYGAHTGYGSWGQCTQVTVSS”, the “polyreactivity (PSR sort gate)” value was “high polyreactivity”.
